# Measured values from patent US20190282673A1, “STAPHTAME ACTIVITY ON BIOFILMS” (priority 2016, published 2019).
# B1: P128: anti-staphylococcal chimeric protein: phage tail associated muralytic enzyme (TAME) cell wall-degrading region plus staphylococcus-specific binding region; SEQ ID NO: 1 (protein)
# chain: MSLDSLKKYNGKLPKHDPSFVQPGNRHYKYQCTWYAYNRRGQLGIPVPLWGDAADWIGGAKGAGYGVGRTPKQGACVIWQRGVQGGSPQYGHVAFVEKVLDGGKKIFISEHNYATPNGYGTRTIDMSSAIGKNAQFIYDKKLETPNTGWKTNKYGTLYKSESASFTPNTDIITRTTGPFRSMPQSGVLKAGQTIHYDEVMKQDGHVWVGYTGNSGQRIYLPVRTWNKSTNTLGVLWGTIK
# modifications: P128 chimera
# Columns and labels:
# [1] = system: multi-species biofilm (P. aeruginosa PAO1, S. aureus ATCC 700699, E. faecalis ATCC 29212); test: Lubbock chronic wound pathogenic biofilm (LCWPB) mixed culture model; type: cell-based; details: for CFU/mL of P. aeruginosa / CFU/mL of E. faecalis / CFU/mL of S. aureus: 24 h
# Protocol: LCWPB media (Bolton broth, Oxoid Ltd, supplemented with 50% Bovine Plasma and 5% hemolyzed horse blood) was used for multi-species biofilm formation according to the procedure described. Sun, et al. (2008) “In vitro multispecies Lubbock chronic wound biofilm model” Wound Repair Regen. 16:805-13. Briefly, P. aeruginosa PAO1, E. faecalis ATCC 29212 and S. aureus ATCC 700699 grown on TSB agar plates were inoculated into TSB broth and grown at 37° C. in a shaker for 16 h. The cultures were individually diluted to 1×10^6 CFU/mL, mixed in equal volumes, and 10 μL was added to 3 mL of LCWPB media containing a sterile pipette tip. For biofilm formation either two (P. aeruginosa PAO1, and S. aureus ATCC 700699) or all three bacterial species (P. aeruginosa PAO1, E. faecalis ATCC 29212 and S. aureus ATCC 700699) were inoculated into LCWPB media. In this model the pipette tip acts as a surface for biofilm formation. To test the ability of P128 to prevent biofilm formation, P128 at 10, 50 and 250 μg/mL was added to the tubes and the tubes were incubated at 37° C. in a shaker for 24 h with shaking at 150 rpm. Upon completion of incubation, the tips were removed from the tubes and placed on petri plates for observation. In the absence of P128, a confluent and thick mass of biofilm could be seen. The mass of the biofilm was greater in culture tubes with 3 species than in the ones with 2 species. For enumeration of bacteria in biofilms, the biofilm formed on the tips was washed twice in PBS, transferred into clean test tubes, and again washed twice with PBS. The washed biofilm mass was then transferred to a 50 mL conical polypropylene tube and the biofilm was macerated with sterile scissors. In situations when biofilm formation was not visible, the tips alone were processed as described above. The contents were vortexed thoroughly, diluted and plated on TSA plates. The plates were incubated for 24 h at 37° C. followed by incubation at ambient temperature for 24 h to enhance pigment production.
# S. epidermidis = test: P128 MIC in CAMHB and serum; type: cell-based, Staphylococcus epidermidis
# [2] = two species (P. aeruginosa PAO1, S. aureus ATCC 700699), P128 10 μg/mL
molecule,measurement,setting,value
B1,Prevention of biofilm formation,[1]; P128 1×MIC (10 μg/mL),prevented the formation of biofilms
same,CFU/mL of P. aeruginosa,"[1]; three species (P. aeruginosa PAO1, S. aureus ATCC 700699, E. faecalis ATCC29212), P128 10 μg/mL",2.2 × 10^5 CFU/mL
same,CFU/mL of E. faecalis,"[1]; three species, P128 10 μg/mL",9 × 10^5 CFU/mL
same,CFU/mL of S. aureus,"[1]; three species, P128 10 μg/mL",2 × 10^4 CFU/mL
same,CFU/mL of E. faecalis,"[1]; three species, P128 50 μg/mL",1.8 × 10^4 CFU/mL
same,CFU/mL of P. aeruginosa,"[1]; three species, P128 50 μg/mL",7 × 10^4 CFU/mL
same,CFU/mL of S. aureus,"[1]; three species, P128 50 μg/mL",2 × 10^3 CFU/mL
same,CFU/mL of E. faecalis,"[1]; three species, P128 250 μg/mL",1.6 × 10^4 CFU/mL
same,CFU/mL of P. aeruginosa,"[1]; three species, P128 250 μg/mL",1.7 × 10^5 CFU/mL
same,CFU/mL of S. aureus,"[1]; three species, P128 250 μg/mL",<10 CFU/mL
same,CFU/mL of P. aeruginosa,[1]; [2],2 × 10^6 CFU/mL
same,CFU/mL of S. aureus,[1]; [2],2.2 × 10^5 CFU/mL
same,CFU/mL of P. aeruginosa,"[1]; two species, P128 50 μg/mL",1.5 × 10^5 CFU/mL
same,CFU/mL of S. aureus,"[1]; two species, P128 50 μg/mL",1.8 × 10^5 CFU/mL
same,CFU/mL of P. aeruginosa,"[1]; two species, P128 250 μg/mL",8 × 10^5 CFU/mL
same,CFU/mL of S. aureus,"[1]; two species, P128 250 μg/mL",2 × 10^3 CFU/mL
same,Fold reduction in serum MIC,S. epidermidis; S. epidermidis B9470,32 fold
same,MIC of P128 in CAMHB,S. epidermidis; S. epidermidis B9470,4 μg/ml and (0.14) μM
same,MIC of P128 in Serum,S. epidermidis; S. epidermidis B9470,0.12 μg/ml and (0.004) μM
same,Fold reduction in serum MIC,S. epidermidis; S. epidermidis B9473,4 fold
same,MIC of P128 in CAMHB,S. epidermidis; S. epidermidis B9473,16 μg/ml and (0.58) μM
same,MIC of P128 in Serum,S. epidermidis; S. epidermidis B9473,4 μg/ml and (0.14) μM
same,24 h P128 MIC for serum time-kill,"S. epidermidis; S. epidermidis, fetal calf serum",0.25 µg/mL
